US20220389118A1 (Chugai, published 2022)
Where a chain is given by its changes, count along the chain named. In names and notes the source's numbering stands. Read-outs that look alike come from different tables or passages of the source. Values belong to the binder of their own block, whether it stands above or below them.

Key:
[1] = target: T1, soluble human IL-6 receptor (human, UniProt P08887 20-357); experiment: SPR (Biacore T100), about 300 RU of antibody captured on a Protein A/G chip (CM5), human IL-6 receptor as analyte, pH 7.4, 1.2 mM CaCl2, 37 °C
T1 construct: also called hsIL-6R
T1 sequence: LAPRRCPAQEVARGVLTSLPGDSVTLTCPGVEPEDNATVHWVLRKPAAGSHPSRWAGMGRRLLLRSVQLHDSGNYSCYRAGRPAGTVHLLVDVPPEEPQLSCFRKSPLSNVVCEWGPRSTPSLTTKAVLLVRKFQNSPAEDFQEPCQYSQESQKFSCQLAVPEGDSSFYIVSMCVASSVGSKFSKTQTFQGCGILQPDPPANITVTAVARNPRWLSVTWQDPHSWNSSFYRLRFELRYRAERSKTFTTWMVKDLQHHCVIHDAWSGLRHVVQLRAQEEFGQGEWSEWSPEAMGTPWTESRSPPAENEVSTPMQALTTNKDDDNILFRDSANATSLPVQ
Experimental: These buffers were each used to dilute human IL-6 receptor. All measurements were carried out at 37° C.
Then, 10 mM glycine-HCl (pH 1.5) was injected at a flow rate of 30 μl/min for 30 seconds to regenerate the sensor chip.

[2] = target: T2, human FcγRIIa type R (R131) extracellular domain with C-terminal His tag (human, UniProt P12318 34-217); experiment: SPR (Biacore), antibody captured, FcγR analyte
T2 construct: extracellular domain; also called FcγRIIaR; not shown: His tag at the C terminus
T2 sequence (looked up): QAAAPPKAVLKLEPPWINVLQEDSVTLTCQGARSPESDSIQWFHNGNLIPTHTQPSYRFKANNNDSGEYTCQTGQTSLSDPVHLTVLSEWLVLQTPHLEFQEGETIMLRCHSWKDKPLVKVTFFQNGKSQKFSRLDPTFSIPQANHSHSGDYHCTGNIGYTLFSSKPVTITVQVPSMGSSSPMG

[3] = target: T3, human FcγRIa extracellular domain with C-terminal His tag (human, UniProt P12314 16-292); experiment: SPR (Biacore), antibody captured, FcγR analyte
T3 construct: not shown: His tag at the C terminus
T3 sequence (P12314 16-292): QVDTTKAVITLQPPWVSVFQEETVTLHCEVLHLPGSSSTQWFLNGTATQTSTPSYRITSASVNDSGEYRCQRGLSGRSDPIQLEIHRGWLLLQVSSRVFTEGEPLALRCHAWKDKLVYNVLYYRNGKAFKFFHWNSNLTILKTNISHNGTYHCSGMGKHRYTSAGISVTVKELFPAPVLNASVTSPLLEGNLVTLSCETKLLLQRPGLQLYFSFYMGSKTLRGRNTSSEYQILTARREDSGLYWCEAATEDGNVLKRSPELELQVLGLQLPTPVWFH

[4] = target: T4, human FcγRIIb extracellular domain with C-terminal His tag (human, UniProt P31994 43-217); experiment: SPR (Biacore), antibody captured, FcγR analyte
T4 construct: extracellular domain; not shown: His tag at the C terminus
T4 sequence (looked up): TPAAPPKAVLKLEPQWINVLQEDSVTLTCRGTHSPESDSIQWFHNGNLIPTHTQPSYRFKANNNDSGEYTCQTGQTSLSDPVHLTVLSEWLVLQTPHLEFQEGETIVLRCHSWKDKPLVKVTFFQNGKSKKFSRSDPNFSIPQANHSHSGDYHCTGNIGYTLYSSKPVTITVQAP

[5] = target: T2, human FcγRIIa type R (R131) …; experiment: SPR (Biacore); KD of IL6R-B3/IL6R-L divided by KD of this antibody
[6] = target: T4, human FcγRIIb extracellular domain with …; experiment: as above
[7] = target: T4, human FcγRIIb extracellular domain with …; experiment: SPR (Biacore); KD for FcγRIIaR divided by KD for FcγRIIb
[8] = target: T5, human FcγRIIb extracellular domain with C-terminal His tag (human, UniProt P31994 43-217); experiment: SPR (Biacore); KD ratio against IL6R-B3/IL6R-L
T5 construct: extracellular domain; not shown: His tag at the C terminus
T5 sequence (looked up): T4 sequence (looked up)

[9] = target: T6, human FcγRIa extracellular domain with C-terminal His tag (human, UniProt P12314 16-292); experiment: SPR (Biacore), antibody captured, FcγR analyte; remark: listed apart in the source
T6 construct: not shown: His tag at the C terminus
T6 sequence (P12314 16-292): as the sequence (P12314 16-292) above

[10] = target: T7, human FcγRIIa type H (allotype H131) extracellular domain with C-terminal His tag (human, UniProt P12318 34-217); experiment: SPR (Biacore), antibody captured, FcγR analyte
T7 construct: extracellular domain; also called FcγRIIaH; FcγRIIa H type; not shown: His tag at the C terminus
T7 sequence (looked up): T2 sequence (looked up) with R134H

[11] = target: T5, human FcγRIIb extracellular domain with …; experiment: SPR (Biacore), antibody captured, FcγR analyte; remark: listed apart in the source
[12] = target: T8, human FcγRIIIa type V (allotype V158) extracellular domain with C-terminal His tag (human, UniProt P08637 17-208); experiment: SPR (Biacore), antibody captured, FcγR analyte
T8 construct: extracellular domain; also called FcγRIIIaV; FcγRIIIa V type; not shown: His tag at the C terminus

[13] = target: T2, human FcγRIIa type R (R131) …; experiment: SPR (Biacore), antibody captured, FcγR analyte; remark: listed apart in the source
[14] = target: T3, human FcγRIa extracellular domain with …; experiment: SPR (Biacore), antibody captured, FcγR analyte; remark: listed apart in the source
[15] = target: T9, human FcγRIIa type H (H131) extracellular domain with C-terminal His tag (human, UniProt P12318 34-217); experiment: SPR (Biacore), antibody captured, FcγR analyte
T9 construct: extracellular domain; also called FcγRIIaH; not shown: His tag at the C terminus
T9 sequence (looked up): T2 sequence (looked up) with R134H

[16] = target: T10, human FcγRIIa type R (allotype R131) extracellular domain with C-terminal His tag (human, UniProt P12318 34-217); experiment: SPR (Biacore), antibody captured, FcγR analyte
T10 construct: extracellular domain; also called FcγRIIaR; FcγRIIa R type; not shown: His tag at the C terminus
T10 sequence (looked up): T2 sequence (looked up)

[17] = target: T11, human FcγRIIIa type V (V158) extracellular domain with C-terminal His tag (human, UniProt P08637 17-208); experiment: SPR (Biacore), antibody captured, FcγR analyte
T11 construct: extracellular domain; also called FcγRIIIaV; not shown: His tag at the C terminus

[18] = target: T3, human FcγRIa extracellular domain with …; experiment: SPR (Biacore), antibody captured, FcγR analyte; remark: listed apart in the source
[19] = target: T12, human FcγRIIIa type V extracellular domain with C-terminal His tag (human, UniProt P08637 17-208); experiment: SPR, Ref. Ex. 25
T12 construct: extracellular domain; also called FcγRIIIaV; FcγRIIIa V type

[20] = target: T13, human FcγRIIa type H extracellular domain with C-terminal His tag (human, UniProt P12318 34-217); experiment: SPR, Ref. Ex. 25
T13 construct: extracellular domain; also called FcγRIIaH; FcγRIIa H
T13 sequence (looked up): T2 sequence (looked up) with R134H

[21] = target: T14, human FcγRIIa type R extracellular domain with C-terminal His tag (human, UniProt P12318 34-217); experiment: SPR, Ref. Ex. 25
T14 construct: extracellular domain; also called FcγRIIaR; FcγRIIa R
T14 sequence (looked up): T2 sequence (looked up)

[22] = target: T4, human FcγRIIb extracellular domain with …; experiment: SPR (Biacore), antibody captured, FcγR analyte; remark: listed apart in the source

T8 sequence (P08637 17-208 F176V): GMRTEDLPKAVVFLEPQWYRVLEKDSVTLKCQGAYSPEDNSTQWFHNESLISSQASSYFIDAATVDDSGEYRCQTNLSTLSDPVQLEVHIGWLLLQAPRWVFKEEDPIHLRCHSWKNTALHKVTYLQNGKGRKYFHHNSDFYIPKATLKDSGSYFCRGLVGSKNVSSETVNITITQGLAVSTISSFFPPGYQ
T12 sequence (P08637 17-208 F176V): as above
T11 sequence (P08637 17-208 F176V): as above

B3: IL6R-BP198/IL6R-L (antibody, human IgG1, kappa)
heavy: QVQLQESGPGLVKPSETLSLTCAVSGHSISHDHAWSWVRQPPGEGLEWIGFISYSGITNYNPSLQGRVTISRDNSKNTLYLQMNSLRAEDTAVYYCARSLARTTAMDYWGEGTLVTVSSASTKGPSVFPLAPSSKSTSGGTAALGCLVKDYFPEPVTVSWNSGALTSGVHTFPAVLQSSGLYSLSSVVTVPSSSLGTQTYICNVNHKPSNTKVDKKVEPKSCDKTHTCPPCPAPDYLGGDSVFLFPPKPKDTLMISRTPEVTCVVVDVSDEDGEVKFNWYVDGVEVHNAKTKPREEQYNSTYRVVSVLTVLHQDWLNGKEYKCKVSNAALPKPIEKTISKAKGQPREPQVYTLPPSRDELTKNQVSLTCLVKGFYPSDIAVEWESNGQPENNYKTTPPVLDSDGSFFLYSKLTVDKSRWQQGNVFSCSVMHEALHNHYTQESLSLSP
light: not shown
notes: copies: 2 + 2
- KD(IIb) of parent polypeptide/KD(IIb) of altered polypeptide [8]: 15.7
- Kd [9]: 11 nM
- Kd [10]: 20000 nM
- Kd [11]: 200 nM
- Kd [12]: 44000 nM

B4: IL6R-BP469/IL6R-L (antibody, human IgG1, kappa)
heavy: B3 heavy with Y236L, G239D, Y298D, A328K, K332R, E335S
light: not shown
notes: E333S introduced into IL6R-BP230; copies: 2 + 2
- Kd [13]: 600 nM

B5: IL6R-BP384/IL6R-L (antibody, human IgG1, kappa)
heavy: B3 heavy with Y236L, G239D, Y298D, A328K, K332R, K336R
light: not shown
notes: K334R introduced into IL6R-BP230; copies: 2 + 2
- Kd [14]: 3 nM

B7: IL6R-BP223/IL6R-L (antibody, human IgG1, kappa)
heavy: B3 heavy with D235E, G239D, K332R
light: not shown
notes: copies: 2 + 2
- Kd [16]: 600 nM

B8: IL6R-BP462/IL6R-L (antibody, human IgG1, kappa)
heavy: B3 heavy with Y236L, G239D, S269A, D270E, A328K, K332R, P398V
light: not shown
notes: P396V introduced into IL6R-BP423; copies: 2 + 2
- Kd [17]: 9000 nM

B9: IL6R-BP267/IL6R-L (antibody, human IgG1, kappa)
heavy: B3 heavy with Y236L, G239D, D270E, A328K, K332A
light: not shown
notes: alterations counted against IL6R-B3; copies: 2 + 2
- Kd [18]: 4 nM

B11: IL6R-BP468/IL6R-L (antibody, human IgG1, kappa)
heavy: B3 heavy with Y236L, G239D, Y298D, A328K, K332R, K336T
light: not shown
notes: copies: 2 + 2
- Kd [22]: 40 nM

Continued, values first:

- binding result [1]: binds
B1: 6RpH#02 (antibody, human IgG1, kappa, V domains shown)
VH: QVQLVQSGAEVKKPGSSVKVSCKASGGTFSSYAISWVRQAPGQGLEWMGGIIPIFGTANYAQKFQGRVTITADESTSTAYMELSSLRSEDTAVYYCMINGVWEGGMDVWGQGTTVTVSS
VL: DIQMTQSPSSLSASVGDRVTITCRASQSIHSHLNWYQQKPGKAPKLLIYHASKLQSGVPSRFSGSGSGTDFTLTISSLQPEDFATYYCQQHGNSPLTFGQGTKVEIKR

- Kd [2]: 540 nM
- Kd [3]: 7.7 nM
- Kd [4]: 19 nM
- KD(IIaR) of parent polypeptide/KD(IIaR) of altered polypeptide [5]: 2
- KD(IIb) of parent polypeptide/KD(IIb) of altered polypeptide [6]: 161
- KD(IIaR)/KD(IIb) [7]: 28
B2: IL6R-BP478/IL6R-L (antibody)
heavy: QVQLQESGPGLVKPSETLSLTCAVSGHSISHDHAWSWVRQPPGEGLEWIGFISYSGITNYNPSLQGRVTISRDNSKNTLYLQMNSLRAEDTAVYYCARSLARTTAMDYWGEGTLVTVSSASTKGPSVFPLAPCSRSTSESTAALGCLVKDYFPEPVTVSWNSGALTSGVHTFPAVLQSSGLYSLSSVVTVPSSSLGTKTYTCNVDHKPSNTKVDKRVESKYGPPCPPCPAPDLLGDDSVFLFPPKPKDTLMISRTPEVTCVVVDVSDEDGEVKFNWYVDGVEVHNAKTKPREEQDNSTYRVVSVLTVLHQDWLNGKEYKCKVSNKALPRPIEKTISKAKGQPREPQVYTLPPSRDELTKNQVSLTCLVKGFYPSDIAVEWESNGQPENNYKTTPPVLDSDGSFFLYSKLTVDKSRWQQGNVFSCSVMHEALHNHYTQESLSLSP
light: not shown
notes: copies: 2 + 2

- Kd [15]: 10000 nM
B6: IL6R-BP470/IL6R-L (antibody, human IgG1, kappa)
heavy: B3 heavy with Y236L, G239D, Y298D, A328K, K332R, E335T
light: not shown
notes: E333T introduced into IL6R-BP230; copies: 2 + 2

- Kd [19]: 37000 nM
- Kd [20]: 20000 nM
- Kd [21]: 22000 nM
B10: IL6R-PD087/IL6R-L (antibody, human IgG1, kappa)
heavy: B3 heavy with D235E, Y236L, G239M, M254Y, D270H, G273P, A328K, K332A, N436Y, E441K
light: not shown
notes: also called P238D/G237M; G237M/P238D; copies: 2 + 2
